In patent publication US6500919B1, “Melanoma associated antigenic polypeptide, epitopes thereof and vaccines against melanoma” (IntroGene B.V., priority 1994, dated 2002):

Tests used:
HLA-A2.1 = target: T1, HLA-A2.1 (Homo sapiens, UniProt P04439, D140Y/D185E/D98H/E176V/E277Q/G131W/G231S/I119V/I121R/I166T/I218V/L300P/L318F/N151K/N90K/P208A/P217A/Q86G/Q94H/R138H/R169H/T345S); assay: HLA-A2.1 peptide binding assay (HLA-A2.1 stabilization on processing defective T2 cells, flow cytometry with mAb BB7.2)
T1 construct: HLA-A2.1 stabilization at the cell surface was determined by flow cytometry using mAb BB7.2; endogenous in cells; host or cells: T2 cells (processing defective, HLA-A2.1+)

[1] = test system: peptide loaded HLA-A2.1+ T2 cells
[2] = target: T2, HLA-A2.1 (on processing defective T2 cells) (human); assay: peptide binding assay on processing defective T2 cells
T2 construct: also called MHC HLA-A2.1 molecule

Row | binding to the MHC HLA-A2.1 molecule (HLA-A2.1) | Molecule | also measured
1 | bind | R-L-M-K-Q-D-F-S-V (RLMKQDFSV) | 
2 | bind | V-L-P-D-G-Q-V-I-W-V (VLPDGQVIWV) | 
3 | bind | M-L-G-T-H-T-M-E-V (MLGTHTMEV) | 
4 |  | CC(C)C[C@H](NC(=O)[C@H](CCCNC(=N)N)NC(=O)[C@H](CC(C)C)NC(=O)[C@@H](NC(=O)[C@H](C)NC(=O)[C@@H](NC(=O)CNC(=O)[C@H](CC(=O)O)NC(=O)[C@H](CC(C)C)NC(=O)[C@@H](N)CC(C)C)[C@@H](C)O)[C@@H](C)O)C(=O)O [L-L-D-G-T-A-T-L-R-L] | recognized by anti-melanoma cytotoxic T lymphocytes in the context of HLA-A2.1 [1]: recognized
5 |  | LLDGTATLRL (also called gp100 amino acids 457-466) [gp100 peptide LLDGTATLRL] | binding result [2]: binds
